Test results: PMC9488787
Where two headings read alike, the source gives them in different places.

Hrq1: Hrq1-7KR (K164R, K219R, K221R, K366R, K839R, K872R, K938R)
degradation_or_half_life (ubiquitination at K164): decreases | expression_or_secretion (ubiquitination at K164): no change | degradation_or_half_life (ubiquitination at K219): decreases | expression_or_secretion (ubiquitination at K219): no change | degradation_or_half_life (ubiquitination at K221): decreases | expression_or_secretion (ubiquitination at K221): no change | degradation_or_half_life (ubiquitination at K366): decreases | expression_or_secretion (ubiquitination at K366): no change | degradation_or_half_life (ubiquitination at K839): decreases | expression_or_secretion (ubiquitination at K839): no change | degradation_or_half_life (ubiquitination at K872): decreases | expression_or_secretion (ubiquitination at K872): no change | degradation_or_half_life (ubiquitination at K938): decreases | expression_or_secretion (ubiquitination at K938): no change
